In patent US20240166748A1:
Several values for one entry are separate records, joined by “and”; a condition that tells them apart may be missing. Equal values may be shown once.

B1: wild-type canine IgG.B Fc (SASA-tagged CH2-CH3) (Fc fusion, part only; not given: serum albumin single-domain tag, part only)
chain, part: APEMLGGPSVFIFPPKPKDTLLIARTPEVTCVVVDLDPEDPEVQISWFVDGKQMQTAKTQPREEQFNGTYRVVSVLPIGHQDWLKGKQFTCKVNNKALPSPIERTISKARGQAHQPSVYVLPPSREELSKNTVSLTCLIKDFFPPDIDVEWQSNGQQEPESKYRTTPPQLDEDGSYFLYSKLSVDKSRWQRGDTFICAVMHEALHNHYTQESLSHSPGK

What follows are molecules tested against T1, canine FcRn (UniProtKB-E2R0L6 [FcRn] and UniProtKB-E2RN10 [canine beta-2-microglobulin]) (canine) (assay: SPR Biacore 8K, pH 5.5, Fc captured via SASA tag on BSA, canine FcRn 200 nM).

Kd	koff	kon	Molecule
502 nM and 784 nM	0.169 s⁻¹ and 0.207 s⁻¹	336000 M⁻¹ s⁻¹ and 264000 M⁻¹ s⁻¹	B1

Target: T1, canine FcRn
Assay: as above
Remark: another data set of the same source

Kd	koff	kon	Molecule
1560 nM and 754 nM	0.179 s⁻¹ and 0.182 s⁻¹	115000 M⁻¹ s⁻¹ and 242000 M⁻¹ s⁻¹	B1

These molecules were tested against T1, canine FcRn (assay: SPR Biacore 8K, pH 5.5, Fc captured via SASA tag on BSA, canine FcRn 400 nM).

Kd	WT KD Avg/Variant KD	koff	kon	Molecule
340 nM and 317 nM	1.66 and 1.78	–	–	canine IgG.B Fc variant A254S (SASA-tagged CH2-CH3) (Fc fusion)
673 nM and 592 nM	0.84 and 0.96	0.183 s⁻¹ and 0.181 s⁻¹	272000 M⁻¹ s⁻¹ and 306000 M⁻¹ s⁻¹	canine IgG.B Fc variant D378A (SASA-tagged CH2-CH3) (Fc fusion)
618 nM and 747 nM	0.76 and 0.92	0.369 s⁻¹ and 0.18 s⁻¹	598000 M⁻¹ s⁻¹ and 241000 M⁻¹ s⁻¹	canine IgG.B Fc variant E380A (SASA-tagged CH2-CH3) (Fc fusion)
245 nM and 294 nM	2.31 and 1.92	–	–	canine IgG.B Fc variant G309A (SASA-tagged CH2-CH3) (Fc fusion)
266 nM and 359 nM	2.13 and 1.58	0.229 s⁻¹ and 0.0997 s⁻¹	–	canine IgG.B Fc variant H433A (SASA-tagged CH2-CH3) (Fc fusion)
472 nM and 563 nM	1.2 and 1	0.169 s⁻¹ and 0.194 s⁻¹	357000 M⁻¹ s⁻¹ and 345000 M⁻¹ s⁻¹	canine IgG.B Fc variant I308A (SASA-tagged CH2-CH3) (Fc fusion)
422 nM and 548 nM	1.34 and 1.03	–	–	canine IgG.B Fc variant K315A (SASA-tagged CH2-CH3) (Fc fusion)
292 nM and 240 nM	1.94 and 2.36	–	–	canine IgG.B Fc variant L252A (SASA-tagged CH2-CH3) (Fc fusion)
723 nM and 1670 nM	0.78 and 0.34	–	234000 M⁻¹ s⁻¹ and 318000 M⁻¹ s⁻¹	canine IgG.B Fc variant M428A (SASA-tagged CH2-CH3) (Fc fusion)
457 nM and 494 nM	1.24 and 1.14	0.237 s⁻¹ and 0.477 s⁻¹	518000 M⁻¹ s⁻¹ and 966000 M⁻¹ s⁻¹	canine IgG.B Fc variant N434A (SASA-tagged CH2-CH3) (Fc fusion)
325 nM and 338 nM	1.74 and 1.67	–	–	canine IgG.B Fc variant P307A (SASA-tagged CH2-CH3) (Fc fusion)
341 nM and 257 nM	1.66 and 2.2	–	–	canine IgG.B Fc variant Q285A (SASA-tagged CH2-CH3) (Fc fusion)
368 nM and 370 nM	1.54 and 1.53	0.894 s⁻¹ and 0.496 s⁻¹	2.43e+06 M⁻¹ s⁻¹ and 1.34e+06 M⁻¹ s⁻¹	canine IgG.B Fc variant Q311A (SASA-tagged CH2-CH3) (Fc fusion)
335 nM and 328 nM	1.69 and 1.72	–	–	canine IgG.B Fc variant T250A (SASA-tagged CH2-CH3) (Fc fusion)
447 nM and 298 nM	1.27 and 1.9	–	–	canine IgG.B Fc variant T256A (SASA-tagged CH2-CH3) (Fc fusion)
464 nM and 569 nM	1.22 and 0.99	0.196 s⁻¹ and 0.304 s⁻¹	422000 M⁻¹ s⁻¹ and 533000 M⁻¹ s⁻¹	canine IgG.B Fc variant T286A (SASA-tagged CH2-CH3) (Fc fusion)
393 nM and 876 nM	1.44 and 0.65	0.407 s⁻¹ and 0.213 s⁻¹	–	canine IgG.B Fc variant Y436A (SASA-tagged CH2-CH3) (Fc fusion)

Target: T1, canine FcRn
Assay: SPR Biacore 8K, pH 5.5, Fc captured via SASA tag on BSA, canine FcRn 200 nM
Remark: another data set of the same source

Kd	koff	kon	Molecule
2050 nM and 2990 nM	0.31 s⁻¹ and 0.315 s⁻¹	151000 M⁻¹ s⁻¹ and 105000 M⁻¹ s⁻¹	B1

Each molecule was assayed against T1, canine FcRn (assay: SPR Biacore 8K, pH 5.5, Fc captured via SASA tag on BSA, canine FcRn 100-800 nM).

Kd	koff	kon	Molecule
184 nM	0.046 s⁻¹	250000 M⁻¹ s⁻¹	canine IgG.B Fc YTE variant (L252Y/A254T/T256E) (SASA-tagged CH2-CH3) (Fc fusion)
173 nM	0.0476 s⁻¹	275000 M⁻¹ s⁻¹	canine IgG.B Fc variant L252Y (SASA-tagged CH2-CH3) (Fc fusion)
247 nM	0.102 s⁻¹	411000 M⁻¹ s⁻¹	canine IgG.B Fc variant N434H (SASA-tagged CH2-CH3) (Fc fusion)
182 nM	0.0801 s⁻¹	440000 M⁻¹ s⁻¹	canine IgG.B Fc variant N434R (SASA-tagged CH2-CH3) (Fc fusion)
101 nM	0.045 s⁻¹	446000 M⁻¹ s⁻¹	canine IgG.B Fc variant N434W (SASA-tagged CH2-CH3) (Fc fusion)
29.1 nM	0.0151 s⁻¹	520000 M⁻¹ s⁻¹	canine IgG.B Fc variant N434Y (SASA-tagged CH2-CH3) (Fc fusion)
3150 nM	0.527 s⁻¹	168000 M⁻¹ s⁻¹	B1

Target: T1, canine FcRn
Assay: SPR Biacore 8K, pH 5.5, Fc captured via SASA tag on BSA, canine FcRn 200 nM
Remark: another data set of the same source

Kd	koff	kon	Molecule
884 nM and 862 nM	0.21 s⁻¹ and 0.218 s⁻¹	237000 M⁻¹ s⁻¹ and 253000 M⁻¹ s⁻¹	B1

What follows are molecules tested against T1, canine FcRn (assay: SPR Biacore 8K, pH 5.5, canine FcRn 400 nM; average of the 12 wild-type runs).

Kd	Molecule
566 nM	B1

Target: T1, canine FcRn
Assay: SPR Biacore 8K, pH 5.5, Fc captured via SASA tag on BSA, canine FcRn 200 nM
Remark: another data set of the same source

Kd	koff	kon	Molecule
1710 nM and 2660 nM	0.288 s⁻¹ and 0.326 s⁻¹	168000 M⁻¹ s⁻¹ and 123000 M⁻¹ s⁻¹	B1

Target: T1, canine FcRn
Assay: as above
Remark: another data set of the same source

Kd	koff	kon	Molecule
2290 nM and 1340 nM	0.375 s⁻¹ and 0.433 s⁻¹	163000 M⁻¹ s⁻¹ and 323000 M⁻¹ s⁻¹	canine IgG.B Fc variant A254T (SASA-tagged CH2-CH3) (Fc fusion)
693 nM and 873 nM	0.159 s⁻¹ and 0.16 s⁻¹	229000 M⁻¹ s⁻¹ and 184000 M⁻¹ s⁻¹	canine IgG.B Fc variant D378V (SASA-tagged CH2-CH3) (Fc fusion)
1320 nM and 1570 nM	0.223 s⁻¹ and 0.239 s⁻¹	168000 M⁻¹ s⁻¹ and 152000 M⁻¹ s⁻¹	canine IgG.B Fc variant E380A (SASA-tagged CH2-CH3) (Fc fusion)
869 nM and 774 nM	0.168 s⁻¹ and 0.169 s⁻¹	193000 M⁻¹ s⁻¹ and 218000 M⁻¹ s⁻¹	canine IgG.B Fc variant L252M (SASA-tagged CH2-CH3) (Fc fusion)
98.7 nM and 114 nM	0.0397 s⁻¹ and 0.041 s⁻¹	402000 M⁻¹ s⁻¹ and 358000 M⁻¹ s⁻¹	canine IgG.B Fc variant L252Y (SASA-tagged CH2-CH3) (Fc fusion)
573 nM and 629 nM	0.156 s⁻¹ and 0.164 s⁻¹	272000 M⁻¹ s⁻¹ and 261000 M⁻¹ s⁻¹	canine IgG.B Fc variant N434A (SASA-tagged CH2-CH3) (Fc fusion)
107 nM and 159 nM	0.0524 s⁻¹ and 0.0633 s⁻¹	488000 M⁻¹ s⁻¹ and 399000 M⁻¹ s⁻¹	canine IgG.B Fc variant N434R (SASA-tagged CH2-CH3) (Fc fusion)
924 nM and 1050 nM	0.207 s⁻¹ and 0.209 s⁻¹	225000 M⁻¹ s⁻¹ and 199000 M⁻¹ s⁻¹	canine IgG.B Fc variant N434S (SASA-tagged CH2-CH3) (Fc fusion)
40.4 nM and 75.7 nM	–	–	canine IgG.B Fc variant N434W (SASA-tagged CH2-CH3) (Fc fusion)
15.9 nM	0.00968 s⁻¹	607000 M⁻¹ s⁻¹	canine IgG.B Fc variant N434Y (SASA-tagged CH2-CH3) (Fc fusion)
372 nM and 439 nM	0.566 s⁻¹ and 0.696 s⁻¹	1.52e+06 M⁻¹ s⁻¹ and 1.59e+06 M⁻¹ s⁻¹	canine IgG.B Fc variant Q311V (SASA-tagged CH2-CH3) (Fc fusion)
2480 nM and 1660 nM	0.284 s⁻¹ and 0.287 s⁻¹	114000 M⁻¹ s⁻¹ and 172000 M⁻¹ s⁻¹	canine IgG.B Fc variant T250E (SASA-tagged CH2-CH3) (Fc fusion)
2590 nM and 2840 nM	0.258 s⁻¹ and 0.268 s⁻¹	99600 M⁻¹ s⁻¹ and 94300 M⁻¹ s⁻¹	canine IgG.B Fc variant T250Q (SASA-tagged CH2-CH3) (Fc fusion)
8990 nM and 3110 nM	0.347 s⁻¹ and 0.354 s⁻¹	38700 M⁻¹ s⁻¹ and 114000 M⁻¹ s⁻¹	B1

Target: T1, canine FcRn
Assay: as above
Remark: another data set of the same source

Kd	koff	kon	Molecule
955 nM and 1310 nM	0.181 s⁻¹ and 0.209 s⁻¹	190000 M⁻¹ s⁻¹ and 159000 M⁻¹ s⁻¹	B1

Target: T1, canine FcRn
Assay: as above
Remark: another data set of the same source

Kd	koff	kon	Molecule
639 nM and 692 nM	0.17 s⁻¹ and 0.171 s⁻¹	267000 M⁻¹ s⁻¹ and 247000 M⁻¹ s⁻¹	B1
